Laboratory results as given in patent US20160207995A1 (Genentech, published 2016).
Positions count from the first letter of the chain named. In names and notes the source's numbering stands.

Assays:
[1] = target: T1, human IL-13 (human, UniProt P35225 33-146, biotinylated in the IL-13Rα2 competition ELISA); experiment: cell-based or functional assay
[2] = target: T2, human interleukin-4 (IL-4) (human, UniProt P05112 25-153, biotinylated in the competition ELISAs); experiment: cell-based or functional assay
T2 sequence: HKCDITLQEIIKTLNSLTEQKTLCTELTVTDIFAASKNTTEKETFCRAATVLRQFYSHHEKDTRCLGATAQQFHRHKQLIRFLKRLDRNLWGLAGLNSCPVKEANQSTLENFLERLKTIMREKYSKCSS

[3] = target: T1, human IL-13; experiment: SPR Biacore 3000; antibody captured on anti-human Fc, cytokine 0-50 nM injected, 25 °C, 1:1 Langmuir model
[4] = target: T2, human interleukin-4 (IL-4); experiment: as above
[5] = target: T3, human IL-13 R130Q (human, UniProt P35225 25-146, biotinylated in the IL-13Rα1 competition ELISA); experiment: as above
T3 construct: also called biotinylated IL-13 R130Q

[6] = target: T4, cynomolgus monkey IL-4 (cynomolgus monkey, UniProt P79339 25-153); experiment: as above
T4 construct: Made at Genentech; also called cyno IL-4
T4 sequence: T2 sequence with E26K, V29I, F33L

[7] = target: T5, cynomolgus monkey IL-13 (cynomolgus monkey, UniProt Q5I6E4 19-132 (Macaca thibetana entry), limits assumed); experiment: as above
T5 construct: also called cyno IL-13
T5 chain: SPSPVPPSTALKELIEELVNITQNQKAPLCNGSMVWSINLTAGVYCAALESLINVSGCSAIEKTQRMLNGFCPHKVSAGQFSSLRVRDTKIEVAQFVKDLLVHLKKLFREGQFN

[8] = target: T2, human interleukin-4 (IL-4); experiment: competition ELISA: antibody premixed with biotinylated human IL-4 (5.8 ng/ml), then added to plate-coated human IL-4R; streptavidin-HRP, OD 450 nm
[9] = target: T1, human IL-13; experiment: competition ELISA: antibody premixed with biotinylated human IL-13 (0.056 µg/ml), then added to plate-coated human IL-13Rα2-Fc; streptavidin-HRP, OD 450 nm
[10] = target: T2, human interleukin-4 (IL-4); experiment: SPR (BIAcore A100): IgG captured by anti-human Fcγ antibody, recombinant IL-4 injected, 1:1 Langmuir fit
[11] = target: T2, human interleukin-4 (IL-4); experiment: SPR BIAcore A100; IgG captured on anti-human Fcγ, recombinant IL-4 injected, 1:1 model
[12] = target: T2, human interleukin-4 (IL-4); experiment: SPR
[13] = target: T2, human interleukin-4 (IL-4); experiment: cell-based or functional assay; remark: listed apart in the source
[14] = target: T2, human interleukin-4 (IL-4); experiment: SPR Biacore

B1: anti-IL-4/IL-13 IgG1 bispecific antibody (knobs-into-holes) (bispecific antibody)
heavy 1: not shown
light 1: DIQMTQSPSSLSASVGDRVTITCKASQSVINDAAWYQQKPGKAPKLLIYYTSHRYTGVPSRFSGSGSGTDFTLTISSLQPEDFATYYCQQDYTSPWTFGQGTKVEIKRTVAAPSVFIFPPSDEQLKSGTASVVCLLNNFYPREAKVQWKVDNALQSGNSQESVTEQDSKDSTYSLSSTLTLSKADYEKHKVYACEVTHQGLSSPVTKSFNRGEC
heavy 2: not shown
light 2: DIVLTQSPDSLSVSLGERATINCRASKSVDSYGNSFMHWYQQKPGQPPKLLIYLASNLESGVPDRFSGSGSGTDFTLTISSLQAEDVAVYYCQQNNEDPRTFGGGTKVEIKRTVAAPSVFIFPPSDEQLKSGTASVVCLLNNFYPREAKVQWKVDNALQSGNSQESVTEQDSKDSTYSLSSTLTLSKADYEKHKVYACEVTHQGLSSPVTKSFNRGEC
notes: Half antibodies made in E. coli (not glycosylated) and assembled by redox chemistry; Anti-IL-4 arm is the hole, anti-IL-13 arm the knob; also called anti-IL-4/IL-13 IgG1-isotype
In the case of B1, the “IC50 of TF-1 proliferation inhibition assay (IL-13)” value [1] is reported as 0.03 µg/mL, the “IC50 of TF-1 proliferation inhibition assay (IL-4)” value [2] is reported as 0.06 µg/mL and the Kd [3] is reported as 0.023 nM. It also gave a koff [3] of 1.7e-05 s⁻¹, a kon [3] of 714000 M⁻¹ s⁻¹ and a Kd [4] of 0.068 nM. For the same binder, the koff [4] was 8.48e-05 s⁻¹ and the kon [4] was 1.34e+06 M⁻¹ s⁻¹.

B2: anti-IL-4/IL-13 IgG4 bispecific antibody (knobs-into-holes, S228P, wild-type R409) (bispecific antibody)
heavy 1: EVQLVESGGGLVQPGGSLRLSCAASGYTFTDYSMHWVRQAPGKGLEWVVWINTETGEPTYADSVKGRFTISLDNSKNTAYLQMNSLRAEDTAVYYCARGGIFYGMDYWGQGTLVTVSSASTKGPSVFPLAPCSRSTSESTAALGCLVKDYFPEPVTVSWNSGALTSGVHTFPAVLQSSGLYSLSSVVTVPSSSLGTKTYTCNVDHKPSNTKVDKRVESKYGPPCPPCPAPEFLGGPSVFLFPPKPKDTLMISRTPEVTCVVVDVSQEDPEVQFNWYVDGVEVHNAKTKPREEQFNSTYRVVSVLTVLHQDWLNGKEYKCKVSNKGLPSSIEKTISKAKGQPREPQVYTLPPSQEEMTKNQVSLSCAVKGFYPSDIAVEWESNGQPENNYKTTPPVLDSDGSFFLVSRLTVDKSRWQEGNVFSCSVMHEALHNHYTQKSLSLSLGK
light 1: B1 light 1
heavy 2: not shown
light 2: B1 light 2
notes: Half antibodies made in E. coli (not glycosylated) and assembled by redox chemistry; also called anti-IL-4/IL-13 bispecific antibody; anti-IL-4/IL-13 IgG4-isotype
With B2 the “IC50 of TF-1 proliferation inhibition assay (IL-13)” value [1] was 0.03 µg/mL, the “IC50 of TF-1 proliferation inhibition assay (IL-4)” value [2] was 0.05 µg/mL and the Kd [3] was 0.056 nM. The koff [3] was 3.01e-05 s⁻¹, the kon [3] was 537000 M⁻¹ s⁻¹ and the Kd [5] was 0.142 nM. It also gave a koff [5] of 2.62e-05 s⁻¹, a kon [5] of 184000 M⁻¹ s⁻¹ and a Kd [6] of 0.076 nM. The koff [6] was 0.000151 s⁻¹, the kon [6] was 2.02e+06 M⁻¹ s⁻¹ and the Kd [7] was 0.048 nM. For the same binder, the koff [7] was 2.83e-05 s⁻¹, the kon [7] was 608000 M⁻¹ s⁻¹ and the Kd [4] was 0.046 nM. The koff [4] was 0.000133 s⁻¹, the kon [4] was 2.87e+06 M⁻¹ s⁻¹ and the “IC50 (read off the curve)” value [8] was roughly 0.2 µg/mL. The “IC50 (read off the curve)” value [9] was roughly 0.2 µg/mL.

B3: HuVHIII / HuKIII (antibody, V domains shown)
VH: EVQLVESGGGLVQPGGSLRLSCAASGYTFTDYSMHWVRQAPGKGLEWVVWINTETGEPTYADDFKGRFTISRDNSKNTLYLQMNSLRAEDTAVYYCARGGIFYGMDYWGQGTLVTVSS
VL: EIVLTQSPATLSLSPGERATLSCKASQSVINDAAWYQQKPGQAPRLLIYYTSHRYTGIPARFSGSGSGTDFTLTISSLEPEDFAVYYCQQDYTSPWTFGQGTKVEIKR
notes: also called humanized 19C11-VH3 graft/κ3 graft
With B3 the Kd [10] was 0.026 nM.

B4: humanized 19C11-VH3.FLA/κ3 graft (antibody, V domains shown)
VH: B3 VH with I70F, R72L, L79A
VL: B3 VL
notes: Human IgG expressed in 293 cells; also called 19C11-VH3.FLA with 19C11-κ3 graft
For B4, the Kd [11] was 0.011 nM.

B5: mu19C11 (clone 19C11, murine anti-human IL-4 monoclonal antibody) (antibody, V domains shown)
VH: QIQLVQSGPELKKPGETVKISCKASGYTFTDYSMHWMKQAPGKGLKWMVWINTETGEPTYADDFKGRFAFSLETSANTAYLKINNLKNEDTATYFCARGGIFYGMDYWGQGTSVTVSS
VL: SIVMTQTPKFLLISAGDRVTITCKASQSVINDAAWYQQKPGQSPRLLIYYTSHRYTGVPDRFTGSGYGTDFTFTISTVQAEDLAVYFCQQDYTSPWTFGGGTKLEIKR
notes: Mouse hybridoma IgG (BALB/c); Tested as hybridoma supernatant IgG or purified IgG
In the case of B5, the Kd [12] is reported as no more than 0.01 nM and the “IC50 for blocking IL-4-induced proliferation of TF-1 cells” value [13] is reported as 0.014 µg/mL.

B6: 19C11 Chimera (antibody, V domains shown)
VH: B5 VH
VL: B5 VL
notes: also called chimeric 19C11 (mouse variable regions with human IgG constant regions)
B6 showed a Kd [10] of less than 0.01 nM.

B7: HuVHI / HuKI (antibody, V domains shown)
VH: QVQLVQSGAEVKKPGASVKVSCKASGYTFTDYSMHWVRQAPGQGLEWMVWINTETGEPTYADDFKGRVTITRDTSTSTAYLELSSLRSEDTAVYYCARGGIFYGMDYWGQGTLVTVSS
VL: DIQMTQSPSSLSASVGDRVTITCKASQSVINDAAWYQQKPGKAPKLLIYYTSHRYTGVPSRFSGSGSGTDFTLTISSLQPEDFATYYCQQDYTSPWTFGQGTKVEIKR
notes: also called humanized 19C11-VH1 graft/κ1 graft
With B7 the Kd [10] was 0.024 nM.

B8: HuVHIII / HuKI (antibody, V domains shown)
VH: B3 VH
VL: B7 VL
notes: also called humanized 19C11-VH3 graft/κ1 graft
Binder B8 has a Kd [10] of 0.084 nM.

B9: HuVHIII (FLA) / HuKI (antibody, V domains shown)
VH: B3 VH with I70F, R72L, L79A
VL: B7 VL
notes: also called humanized 19C11-VH3.FLA/κ1 graft
B9 gave a Kd [10] of 0.14 nM.

B10: humanized 19C11-VH1.FFL/κ3 graft (antibody, V domains shown)
VH: B7 VH with V68F, I70F, R72L
VL: B3 VL
notes: Human IgG expressed in 293 cells; also called 19C11-VH1.FFL with 19C11-κ3 graft
B10 showed a Kd [11] of 0.011 nM.

B11: humanized antibody 19C11-VH3.LA.SV/κ1 graft (anti-IL-4) (antibody, V domains shown)
VH: B3 VH with D63S, F64V, R72L, L79A
VL: B7 VL
notes: Parental (monospecific) humanized anti-IL-4 antibody; also called parental anti-IL-4 antibody; hu19C11
B11: binds [14].
